In paper PMC11189427 (Scientific Reports, 2024):
Several values for one entry are separate records, joined by “and”; a condition that tells them apart may be missing. Equal entries are not always repeated.

Target: the molecule itself
Assay: cryo-EM structure

B1: Hendra henipavirus nucleoprotein (natural protein)
chain: MSDIFDEAASFRSYQSKLGRDGRASAATATLTTKIRIFVPATNSPELRWELTLFALDVIRSPSAAESMKIGAAFTLISMYSERPGALIRSLLNDPDIEAVIIDVGSMLNGIPVMERRGDKAQEEMEGLMRILKTARESSKGKTPFVDSRAYGLRITDMSTLVSAVITIEAQIWILIAKAVTAPDTAEESETRRWAKYVQQKRVNPFFALTQQWLTEMRNLLSQSLSVRKFMVEILMEVKKGGSAKGRAVEIISDIGNYVEETGMAGFFATIRFGLETRYPALALNEFQSDLNTIKGLMLLYREIGPRAPYMVLLEESIQTKFAPGGYPLLWSFAMGVATTIDRSMGALNINRGYLEPMYFRLGQKSARHHAGGIDQNMANKLGLNSDQVAELAAAVQETSVGRQDNNMQAREAKFAAGGVLVGGGEQDIDEEEEPIEHSGRQSVTFKREMSMSSLADSVPSSSVSTSGGTRLTNSLLNLRSRLAAKAIKESTAQSSSERNPPNNRPQADSGRKDDQEPKPAQNDLDFVRADV
notes: copies: 28
stoichiometry N: 14 protomers per ring and 28 protomers per double-ring assembly
